Experimental findings from paper PMC3850785 are described below.

Holding throughout (experiment): purified protein
What all share (details): 5 mM GSH, 0.10 M Tris-HCl pH 7.7, 37 °C, 1 h

Substrate in data set [1]: C1O[C@@H]1[C@@H]1CO1
Substrate in data set [2]: C1O[C@@H]1[C@H]1CO1
Substrate in data set [3]: C1O[C@H]1[C@H]1CO1

One may read the Km as the substrate concentration at which the rate is half of its maximum. A word on the kcat: it is the maximal rate divided by the concentration of active sites. As usually defined, the kcat/Km is the second-order rate constant that governs catalysis at low substrate concentration.

B1: human GST T1-1 (Homo sapiens) (protein)
chain: GLELYLDLLSQPCRAVYIFAKKNDIPFELRIVDLIKGQHLSDAFAQVNPLKKVPALKDGDFTLTESVAILLYLTRKYKVPDYWYPQDLQARARVDEYLAWQHTTLRRSCLRALWHKVMFPVFLGEPVSPQTLAATLAELDVTLQLLEDKFLQNKAFLTGPHISLADLVAITELMHPVGAGCQVFEGRPKLATWRQRVEAAVGEDLFQEAHEVILKAKDFPPADPTIKQKLMPWVLAMIR
For B1, the Km in “purified protein [1]” amounted to 790 ± 30 µM; in the data set “purified protein [2]” it was 370 ± 10 µM; in the data set “purified protein [3]”, 930 ± 10 µM. Further, the values for the kcat in “purified protein [1]”, in the data set “purified protein [2]” and in the data set “purified protein [3]” were 0.0618 s⁻¹, 0.0403 s⁻¹ and 0.0617 s⁻¹, respectively. In addition, the figures for the kcat/Km in “purified protein [1]”, in the data set “purified protein [2]” and in the data set “purified protein [3]” were 78.3 M⁻¹ s⁻¹, 108 M⁻¹ s⁻¹ and 66.7 M⁻¹ s⁻¹, respectively.

B2: human GST P1-1 (Homo sapiens) (protein)
chain: PPYTVVYFPVRGRCAALRMLLADQGQSWKEEVVTVETWQEGSLKASCLYGQLPKFQDGDLTLYQSNTILRHLGRTLGLYGKDQQEAALVDMVNDGVEDLRCKYISLIYTNYEAGKDDYVKALPGQLKPFETLLSQNQGGKTFIVGDQISFADYNLLDLLLIHEVLAPGCLDAFPLLSAYVGRLSARPKLKAFLASPEYVNLPINGNGKQ
Take B2: in “purified protein [1]”, the Km came to 740 ± 330 µM, the kcat amounted to 0.044 s⁻¹ and the kcat/Km was 65 M⁻¹ s⁻¹. Besides, in “purified protein [2]”, the Km is 590 ± 150 µM, the kcat was determined as 0.0265 s⁻¹ and the kcat/Km stood at 46.7 M⁻¹ s⁻¹. Moreover, in the data set “purified protein [3]”, the Km is 910 ± 10 µM, the kcat worked out at 0.0442 s⁻¹ and the kcat/Km stood at 48.3 M⁻¹ s⁻¹.

B3: human GST M1-1 (Homo sapiens) (protein)
chain: PMILGYWDIRGLAHAIRLLLEYTDSSYEEKKYTMGDAPDYDRSQWLNEKFKLGLDFPNLPYLIDGAHKITQSNAILCYIARKHNLCGETEEEKIRVDILENQTMDNHMQLGMICYNPEFEKLKPKYLEELPEKLKLYSEFLGKRPWFAGNKITFVDFLVYDVLDLHRIFEPKCLDAFPNLKDFISRFEGLEKISAYMKSSRFLPRPVFSKMAVWGNK
On to B3, for which the Km in “purified protein [1]” stood at 730 ± 60 µM. Also, in “purified protein [2]”, the Km came to 920 ± 330 µM, the kcat was 0.0497 s⁻¹ and the kcat/Km turned out to be 56.7 M⁻¹ s⁻¹. In the data set “purified protein [3]”, the Km came out at 810 ± 50 µM, the kcat amounted to 0.074 s⁻¹ and the kcat/Km amounted to 91.7 M⁻¹ s⁻¹.

B4: human GST A1-1 (Homo sapiens) (protein)
chain: AEKPKLHYFNARGRMESTRWLLAAAGVEFEEKFIKSAEDLDKLRNDGYLMFQQVPMVEIDGMKLVQTRAILNYIASKYNLYGKDIKERALIDMYIEGIADLGEMILLLPVCPPEEKDAKLALIKEKIKNRYFPAFEKVLKSHGQDYLVGNKLSRADIHLVELLYYVEELDSSLISSFPLLKALKTRISNLPTVKKFLQPGSPRKPPMDEKSLEEARKIFRF
For B4, in “purified protein [1]”, the Km stood at 300 ± 50 µM, the kcat is 0.0228 s⁻¹ and the kcat/Km turned out to be 78.3 M⁻¹ s⁻¹. Besides, in the data set “purified protein [2]”, the Km came out at 540 ± 30 µM, the kcat was determined as 0.0342 s⁻¹ and the kcat/Km was found to be 63.3 M⁻¹ s⁻¹. Moreover, in the data set “purified protein [3]”, the Km is 320 ± 10 µM, the kcat was found to be 0.0218 s⁻¹ and the kcat/Km came out at 68.3 M⁻¹ s⁻¹.

B5: human GST A3-3 (Homo sapiens) (protein)
chain: AGKPKLHYFNGRGRMEPIRWLLAAAGVEFEEKFIGSAEDLGKLRNDGSLMFQQVPMVEIDGMKLVQTRAILNYIASKYNLYGKDIKERALIDMYTEGMADLNEMILLLPLCRPEEKDAKIALIKEKTKSRYFPAFEKVLQSHGQDYLVGNKLSRADISLVELLYYVEELDSSLISNFPLLKALKTRISNLPTVKKFLQPGSPRKPPADAKALEEARKIFRF
For B5, in “purified protein [1]”, the Km is 480 ± 330 µM, the kcat amounted to 0.0253 s⁻¹ and the kcat/Km came to 66.7 M⁻¹ s⁻¹. For the same protein, in the data set “purified protein [2]”, the Km was found to be 750 ± 120 µM, the kcat was 0.0302 s⁻¹ and the kcat/Km amounted to 40 M⁻¹ s⁻¹. Besides, in “purified protein [3]”, the Km was found to be 510 ± 80 µM, the kcat amounted to 0.028 s⁻¹ and the kcat/Km stood at 55 M⁻¹ s⁻¹.

B6: rat GST 5-5 (Rattus norvegicus) (protein)
chain: VLELYLDLLSQPCRAIYIFAKKNNIPFQMHTVELRKGEHLSDAFAQVNPMKKVPAMKDGGFTLCESVAILLYLAHKYKVPDHWYPQDLQARARVDEYLAWQHTTLRRSCLRTLWHKVMFPVFLGEQIRPEMLAATLADLDVNVQVLEDQFLQDKDFLVGPHISLADVVAITELMHPVGGGCPVFEGRPRLAAWYRRVEAAVGKDLFLEAHEVILKVRDCPPADPVIKQKLMPRVLTMIQ
On to B6, for which the values for the Km in the data set “purified protein [1]”, in “purified protein [2]” and in “purified protein [3]” were 770 ± 20 µM, 830 ± 150 µM and 800 ± 60 µM, respectively. Besides, the kcat in “purified protein [1]” was determined as 0.0638 s⁻¹; in the data set “purified protein [2]”, 0.0308 s⁻¹; in the data set “purified protein [3]”, 0.0573 s⁻¹. For the same protein, the kcat/Km in “purified protein [1]” was found to be 83.3 M⁻¹ s⁻¹; in “purified protein [2]”, 38.3 M⁻¹ s⁻¹; in “purified protein [3]”, 71.7 M⁻¹ s⁻¹.
